Square brackets hold non-standard residues; d marks the D form. Ends that are not written are not given here.
target: mAB anti V5 (Thermo Scientific), mouse anti V5 antibody; assay: ELISA: 1 µg/ml mouse anti V5 antibody with increasing amounts of SADC, complexes captured on streptavidin plate via biotinylated SADC peptide, bound IgG detected with anti mouse IgG-HRP

Row | EC50 | Binder
1 | 0.007 µg/mL | IPNPLLGLDGGSGDYKDDDDKGK[BiotinAca]GC (peptide, part only; not given: transferrin scaffold, part only, also: peptide conjugated to transferrin scaffold, copy number not given here) [SADC with transferrin scaffold carrying tagged V5 peptide]
2 | 0.0555 µg/mL | IPNPLLGLDGGSGDYKDDDDKGK[BiotinAca]GC (peptide, part only; not given: haptoglobin scaffold, part only, also: peptide conjugated to haptoglobin scaffold, copy number not given here) [SADC with haptoglobin scaffold carrying tagged V5 peptide]
3 | 0.0279 µg/mL | IPNPLLGLDGGSGDYKDDDDKGK[BiotinAca]GC (peptide, part only; not given: albumin scaffold, part only, also: peptide conjugated to albumin scaffold, copy number not given here) [SADC with albumin scaffold carrying tagged V5 peptide]

Reference: patent US20230355660A1
